The text below walks through data of PMC6303191 (Immunity, 2018).

Substitutions are numbered along the chain they refer to. Numbers in names are those of the source. Where “and” joins values, the source holds several entries; their conditions need not be identical. Equal values may be shown once.

Experiment [1] deals with T1, eOD-GT8 (monomer), synthetic construct eOD-GT8-Avi-3C-His (synthetic construct (engineered HIV-1 …)).
The target of the next experiment is T2, Centromere protein B (Homo sapiens (product PRO-390 from …, UniProt P07199)).
T2 construct: also called centromere B
The experiment is described as follows: ELISA. The conditions noted are these: both partners purified. (ELISA stands for enzyme-linked immunosorbent assay.)

Experiment [2] concerns the target Ubiquitin Protein Ligase E3A (UBE3A) (Homo sapiens, assumed, UniProt Q05086). Briefly: ELISA. The conditions noted are these: both partners purified.
The next experiment deals with SSB (La) antigen (Bos taurus (assumed), UniProt P10881). The experiment is described as follows: ELISA. Particulars: both partners purified.
Another experiment addresses Scl-70 antigen (Bos taurus (assumed), UniProt A0AAA9TV68). Briefly: ELISA. The conditions noted are these: both partners purified.
Another experiment concerns the target Jo-1 antigen (Bos taurus (assumed), UniProt Q2KI84). The experiment is described as follows: ELISA. The conditions noted are these: both partners purified.
In experiment [3] the target is T3, eOD-GT6, synthetic construct eOD-GT6-Avi-3C-His (synthetic construct (engineered HIV-1 …)).
T3 construct: source: produced in house (Duke Human Vaccine Institute and VRC/NIAID)
Briefly: SPR. The conditions noted are these: both partners purified.

The target of experiment [4] is T1, eOD-GT8 (monomer), synthetic construct …. The experiment is described as follows: SPR. Particulars: both partners purified.
For another experiment, the target named is eOD-GT8 (24-mer) (synthetic construct (engineered HIV-1 …)). The experiment is described as follows: BLI. Particulars: both partners purified.
The next experiment has as its target eOD-GT8 (heptamer) (synthetic construct (engineered HIV-1 …)). Briefly: BLI. Particulars: both partners purified.

A word on the Kd: it is a measure of binding affinity in units of concentration. Low values mean higher affinity, high ones lower affinity. The term koff denotes the rate constant with which the complex falls apart. Low values mean a long-lived complex, high ones a short-lived complex. For orientation: kon means a measure of how fast the partners come together. High values mean fast association, low ones slow association.

Chain of Ubiquitin Protein Ligase E3A (UBE3A) (Q05086 whole entry): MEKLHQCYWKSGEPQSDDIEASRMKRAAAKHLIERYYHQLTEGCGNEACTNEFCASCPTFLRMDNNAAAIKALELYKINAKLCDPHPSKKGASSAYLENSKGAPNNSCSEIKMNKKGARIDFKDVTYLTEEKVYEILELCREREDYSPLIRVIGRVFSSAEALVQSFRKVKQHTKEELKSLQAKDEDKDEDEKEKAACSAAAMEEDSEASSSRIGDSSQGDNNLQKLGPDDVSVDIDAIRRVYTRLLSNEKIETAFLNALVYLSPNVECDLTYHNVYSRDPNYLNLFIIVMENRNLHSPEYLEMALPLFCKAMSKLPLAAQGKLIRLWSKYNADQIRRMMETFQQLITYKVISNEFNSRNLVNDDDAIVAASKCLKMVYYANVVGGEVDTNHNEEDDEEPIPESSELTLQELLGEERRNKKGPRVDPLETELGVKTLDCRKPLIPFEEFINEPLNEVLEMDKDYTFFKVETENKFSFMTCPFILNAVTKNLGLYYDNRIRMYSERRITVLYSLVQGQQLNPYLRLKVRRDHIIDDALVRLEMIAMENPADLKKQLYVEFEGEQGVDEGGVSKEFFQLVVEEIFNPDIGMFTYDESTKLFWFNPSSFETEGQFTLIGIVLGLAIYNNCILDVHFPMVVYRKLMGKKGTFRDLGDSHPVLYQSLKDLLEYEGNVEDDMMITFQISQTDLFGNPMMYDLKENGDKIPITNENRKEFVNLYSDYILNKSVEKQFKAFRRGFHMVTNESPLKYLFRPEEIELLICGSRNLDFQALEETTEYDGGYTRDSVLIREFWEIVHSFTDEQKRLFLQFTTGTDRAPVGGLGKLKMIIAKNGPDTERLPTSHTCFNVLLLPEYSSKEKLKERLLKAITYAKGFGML
T3 sequence (heavy, as listed by the source): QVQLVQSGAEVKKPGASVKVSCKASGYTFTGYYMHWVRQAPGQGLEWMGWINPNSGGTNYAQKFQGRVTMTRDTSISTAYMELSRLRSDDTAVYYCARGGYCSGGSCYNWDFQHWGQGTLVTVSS
T2 sequence (P07199 whole entry): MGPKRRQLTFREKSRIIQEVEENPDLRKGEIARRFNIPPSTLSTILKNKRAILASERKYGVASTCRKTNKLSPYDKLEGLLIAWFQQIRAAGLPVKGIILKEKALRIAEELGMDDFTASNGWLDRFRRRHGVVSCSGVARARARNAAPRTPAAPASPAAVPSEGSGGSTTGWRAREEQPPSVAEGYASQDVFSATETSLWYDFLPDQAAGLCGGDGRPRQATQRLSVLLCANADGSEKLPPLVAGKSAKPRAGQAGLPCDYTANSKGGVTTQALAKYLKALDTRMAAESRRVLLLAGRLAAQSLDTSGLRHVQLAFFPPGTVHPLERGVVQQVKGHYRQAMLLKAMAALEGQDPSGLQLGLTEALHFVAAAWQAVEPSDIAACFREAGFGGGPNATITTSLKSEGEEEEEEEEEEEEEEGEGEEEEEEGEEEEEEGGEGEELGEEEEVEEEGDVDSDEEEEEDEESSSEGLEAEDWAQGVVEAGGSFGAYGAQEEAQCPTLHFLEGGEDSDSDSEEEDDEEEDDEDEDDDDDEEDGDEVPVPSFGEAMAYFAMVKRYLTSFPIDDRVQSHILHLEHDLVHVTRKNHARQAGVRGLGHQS
Chain of SSB (La) antigen (P05455 whole entry): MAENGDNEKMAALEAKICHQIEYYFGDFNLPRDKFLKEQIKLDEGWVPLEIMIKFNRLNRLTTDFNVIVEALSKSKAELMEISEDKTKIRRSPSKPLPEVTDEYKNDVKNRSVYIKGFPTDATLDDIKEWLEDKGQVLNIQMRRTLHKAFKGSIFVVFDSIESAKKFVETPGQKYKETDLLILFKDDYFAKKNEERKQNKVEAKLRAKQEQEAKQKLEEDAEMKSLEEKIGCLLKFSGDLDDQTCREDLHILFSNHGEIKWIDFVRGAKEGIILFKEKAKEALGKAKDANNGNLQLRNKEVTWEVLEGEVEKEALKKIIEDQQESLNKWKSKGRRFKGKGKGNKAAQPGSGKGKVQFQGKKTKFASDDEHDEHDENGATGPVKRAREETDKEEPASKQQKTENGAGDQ
Chain of Jo-1 antigen (P12081 whole entry): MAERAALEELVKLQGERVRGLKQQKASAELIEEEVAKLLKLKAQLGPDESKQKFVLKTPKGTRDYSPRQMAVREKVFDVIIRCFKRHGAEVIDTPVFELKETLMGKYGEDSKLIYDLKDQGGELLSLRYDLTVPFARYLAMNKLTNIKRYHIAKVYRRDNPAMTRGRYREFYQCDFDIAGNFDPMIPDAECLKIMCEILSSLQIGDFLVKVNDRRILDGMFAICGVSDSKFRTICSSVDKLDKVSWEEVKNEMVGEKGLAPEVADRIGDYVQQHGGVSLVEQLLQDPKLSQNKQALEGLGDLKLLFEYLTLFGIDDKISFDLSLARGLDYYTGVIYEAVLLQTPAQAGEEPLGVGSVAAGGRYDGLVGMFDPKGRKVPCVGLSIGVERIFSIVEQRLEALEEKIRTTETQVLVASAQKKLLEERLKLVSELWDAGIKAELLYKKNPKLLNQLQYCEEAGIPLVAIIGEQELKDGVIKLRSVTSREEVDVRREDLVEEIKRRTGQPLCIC
Chain of Scl-70 antigen (P11387 whole entry): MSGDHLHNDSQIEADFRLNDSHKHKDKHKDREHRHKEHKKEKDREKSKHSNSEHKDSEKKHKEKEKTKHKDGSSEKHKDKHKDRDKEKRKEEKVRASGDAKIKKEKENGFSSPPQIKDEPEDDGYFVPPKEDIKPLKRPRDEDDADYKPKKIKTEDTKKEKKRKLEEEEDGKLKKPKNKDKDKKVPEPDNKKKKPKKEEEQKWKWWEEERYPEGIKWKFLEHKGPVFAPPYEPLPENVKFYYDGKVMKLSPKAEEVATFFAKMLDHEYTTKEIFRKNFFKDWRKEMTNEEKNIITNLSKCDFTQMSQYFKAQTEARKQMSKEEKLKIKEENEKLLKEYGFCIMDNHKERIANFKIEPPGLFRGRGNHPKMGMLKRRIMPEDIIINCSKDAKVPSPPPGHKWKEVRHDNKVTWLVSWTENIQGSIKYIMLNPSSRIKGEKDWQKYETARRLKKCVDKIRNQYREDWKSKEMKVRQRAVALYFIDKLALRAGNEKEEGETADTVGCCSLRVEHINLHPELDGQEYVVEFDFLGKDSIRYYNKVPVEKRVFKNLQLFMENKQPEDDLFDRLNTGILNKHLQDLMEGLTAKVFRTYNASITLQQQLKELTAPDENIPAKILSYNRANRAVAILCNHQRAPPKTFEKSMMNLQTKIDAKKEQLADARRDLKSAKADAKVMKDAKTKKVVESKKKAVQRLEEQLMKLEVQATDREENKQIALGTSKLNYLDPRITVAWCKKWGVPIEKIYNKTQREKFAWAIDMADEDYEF
Chain of eOD-GT8 (24-mer) (synthetic construct (engineered HIV-1 …)) (heavy, as listed by the source): as the sequence (heavy, as listed by the source) above
Chain of eOD-GT8 (heptamer) (synthetic construct (engineered HIV-1 …)) (heavy, as listed by the source): as above

B1: 12A12 V.Rev (antibody, V domains shown)
VH: not shown
VL: DIQMTQSPSSLSASVGDRVTITCQASQDISNYLNWYQQKPGKAPKLLIYDASNLETGVPSRFSGSGSGTDFTFTISSLQPEDIATYYCAVLEFFGPGTKVEIK
B1: in [1], the binding result was “binds”.

B2: VRC20 V.Rev (antibody, V domains shown)
VH: not shown
VL: QSALTQPASVSGSPGQSITISCTGTSSDVGGYNYVSWYQQHPGKAPKLMIYEVSNRPSGVSNRFSGSKSGNTASLTISGLQAEDEADYYCNAFEFFGGGTKLTVL
In the case of B2, in the experiment with Centromere protein B, the binding result is reported as “binds”.

B3: VRC01 L34M (antibody, V domains shown)
VH: QVQLVQSGGQMKKPGESMRISCRASGYEFIDCTMNWIRLAPGKRPEWMGWLKPRGGAVNYARPLQGRVTMTRDVYSDTAFLELRSLTVDDTAVYFCTRGKNCDYNWDFEHWGRGTPVIVSS
VL: EIVLTQSPGTLSLSPGETAIISCRTSQYGSLAWYQQRPGQAPRLVIYSGSTRAAGIPDRFSGSRWGPDYNLTISNLESGDFGVYYCQQYEFFGQGTKVQVD
Regarding B3, in experiment [2], the binding result is listed as “binds”.

B4: VRC02 with 33TL34 reverted to the germline-encoded 33YM34 (antibody, V domains shown)
VH: B3 VH with R23Q, T33Y, I37V, K43R, V88A, F95Y, I118T
VL: B3 VL with S74R, V83L
As to B4, the binding result in experiment [2] was “no binding (tested: 100 μg/ml)”.

B5: DH651.1 with 33TL34 reverted to the germline-encoded 33YM34 (antibody, V domains shown)
VH: B3 VH with A24T, D31E, T33Y, K43R, P63S, L64F, V88P, N101D, D103N, I118T
VL: B3 VL with G9H, T10P, L11A, S12L, F81L
Take B5: in experiment [2], the binding result is listed as “no binding (tested: 100 μg/ml)”.

B6: DH651.2 with 33TL34 reverted to the germline-encoded 33YM34 (antibody, V domains shown)
VH: B3 VH with G9A, T33Y, K43R, N101T, E109A, R113Q, I118T
VL: B3 VL with D68E
For the molecule B6, the binding result in experiment [2] is “no binding (tested: 100 μg/ml)”.

B7: VRC01 T33Y (antibody, V domains shown)
VH: B3 VH with T33Y, M34L
VL: B3 VL
As to B7, the binding result in experiment [2] is on record as “no binding (tested: 100 μg/ml)”.

B8: DH651.4 with 33TL34 reverted to the germline-encoded 33YM34 (antibody, V domains shown)
VH: B3 VH with T33Y, K43R, N59S, N101T, E109A, R113Q, I118T
VL: B3 VL with D68E
In the case of B8, the binding result in [2] is reported as “no binding (tested: 100 μg/ml)”.

B9: VRC01 with 33TL34 reverted to the germline-encoded 33YM34 (antibody, V domains shown)
VH: B3 VH with T33Y
VL: B3 VL
Take B9: the binding result in experiment [2] is listed as “no binding (tested: 100 μg/ml)”.

B10: VRC01 VJ.Rev (antibody, V domains shown)
VH: not shown
VL: EIVLTQSPATLSLSPGERATLSCRASQSVSSYLAWYQQKPGQAPRLLIYDASNRATGIPARFSGSGSGTDFTLTISSLEPEDFAVYYCQQYEFFGQGTKLEIK
For the molecule B10, the binding result in experiment [1] was “binds”.

B11: VRC23 V.Rev (antibody, V domains shown)
VH: not shown
VL: B10 VL with L4M, L13V, Y32N, D50G, N53T, D70E, E79Q, P80S, F93T, L100V
As to B11, the binding result in the experiment with SSB (La) antigen, with Scl-70 antigen, in the experiment with Centromere protein B and with Jo-1 antigen was “binds” each time.

B12: VRC01 V.Rev (antibody, V domains shown)
VH: not shown
VL: EIVLTQSPGTLSLSPGERATLSCRASQSVSSSYLAWYQQKPGQAPRLLIYGASSRATGIPDRFSGSGSGTDFTLTISRLEPEDFAVYYCQQYEFFGQGTKVQVD
As for B12, the binding result in experiment [1] is recorded as “binds”.

B13: VRC18b V.Rev (antibody, V domains shown)
VH: not shown
VL: B12 VL with Q91I, Y92L, Q97R, K100R, Q102E, V103M, D104N
Turning to B13, in [1], the binding result is reported as “binds”.

B14: VRC03 V.Rev (antibody, V domains shown)
VH: not shown
VL: B12 VL with Y92F, Q97L, T99S, K100E, V101L, Q102E, D104H
As for B14, the binding result in [1] was “binds”.

B15: VRC01 UCA (antibody, V domains shown)
VH: not shown
VL: B12 VL with V101L, Q102E, V103I, D104K
notes: also called VRC01 lineage unmutated common ancestor; VRC01 UCA IgG
As for B15, in experiment [3], the Kd is 2400 nM and 2500 nM; the koff stood at 0.068 s⁻¹; the kon amounted to 3000 M⁻¹ s⁻¹. Further, the Kd in [4] is < 0.1 nM and 0.25 nM. Further, in the experiment with eOD-GT8 (24-mer), the binding result was “binds”. The binding result with eOD-GT8 (heptamer) was “binds”.
